PMC4212957, “The serodominant secreted effector protein of Salmonella, SseB, is a strong CD4 antigen containing an immunodominant epitope presented by diverse HLA class II alleles” (Immunology, 2014)

How the values were obtained:
[1] = target: T1, HLA-DRB1*03:01 (Homo sapiens, UniProt P01903+P01911, A100K/A102G/A103R/A169T/F55Y/I96L/K41T/L162R/M171V/P40S/Q125H/Q178H/Q39Y/R42S/S66N/T106N/T262R/W38E/Y61H); test: Peptide/HLA-DR binding, competitive ELISA; settings: ratio IC50 of peptide / IC50 of reference peptide MT2-16, lower = higher affinity, ratio 20 or less high, 20–100 moderate, three independent experiments
T1 construct: HLA-DR heterodimers were purified from homozygous Epstein–Barr virus B-lymphoblastoid cell lines; host or cells: homozygous EBV B-lymphoblastoid cell line
Procedure, shortened: (§1)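 HLA-DR heterodimers, affinity-purified with L243 from homozygous EBV B-lymphoblastoid lines, were tested in competitive ELISA against biotinylated reference peptides. The IC50 is the peptide concentration inhibiting 50% of labelled-peptide binding, expressed as relative affinity to the unlabelled reference peptide.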

[2] = target: T2, HLA-DRB1*09:01 (Homo sapiens, UniProt P01903+P01911, A100R/A103E/D57H/D86V/F55Y/F60I/F76Y/I96F/K127E/L162R/M171V/P40D/Q125H/Q99R/R33Q/R42F/S133A/S66N/T210M/V115G/W38K/Y107V/Y59G/Y89S); test: Peptide/HLA-DR binding, competitive ELISA; settings: ratio IC50 of peptide / IC50 of reference peptide CTP 427–441, lower = higher affinity, ratio 20 or less high, 20–100 moderate, three independent experiments
T2 construct: HLA-DR heterodimers were purified from homozygous Epstein–Barr virus B-lymphoblastoid cell lines; host or cells: homozygous EBV B-lymphoblastoid cell line
Procedure, shortened: as §1

[3] = target: HLA-DRB1*12:02 (Homo sapiens, UniProt P01903+P01911, A100R/A169T/D57E/D86V/F55L/H45Y/I96F/K41T/L162R/M171V/P40S/Q125H/Q178H/Q39Y/Q99D/R42G/S66L/T262R/V114A/V67L/W38E/Y59H/Y61H/Y89S); test: Peptide/HLA-DR binding, competitive ELISA; settings: ratio IC50 of peptide / IC50 of reference peptide TFR 141–155, lower = higher affinity, ratio 20 or less high, 20–100 moderate, three independent experiments
Procedure, shortened: as §1

[4] = target: T3, HLA-DRB1*15:02 (Homo sapiens, UniProt P01903+P01911, V115G); test: Peptide/HLA-DR binding, competitive ELISA; settings: ratio IC50 of peptide / IC50 of reference peptide TFR 607–620, lower = higher affinity, ratio 20 or less high, 20–100 moderate, three independent experiments
T3 construct: HLA-DR heterodimers were purified from homozygous Epstein–Barr virus B-lymphoblastoid cell lines; host or cells: homozygous EBV B-lymphoblastoid cell line
Procedure, shortened: as §1

[5] = system: HLA-DR heterodimers; test: Breadth of binding across the HLA-DR panel; parameters: species or system human; settings: of nine HLA-DR molecules screened; competitive ELISA
Protocol: HLA-DR heterodimers were purified from homozygous Epstein–Barr virus B-lymphoblastoid cell lines (HPA Culture Collections, Salisbury, UK) by affinity chromatography with the monomorphic HLA-DRα monoclonal antibody, L243.[29],[30] Binding of the SseB peptide panel to the HLA-DR molecules HLA-DRB1*01:01, 03:01, 04:01, 07:01, 09:01, 11:01, 12:02, 15:01, 15:02 was assessed by competitive ELISA, as previously described, using an automated workstation.[29],[30] We evaluated the peptide concentration able to prevent binding of 50% of the labelled peptide (IC50). Data were expressed as relative affinity: ratio of the IC50 of the peptide to the IC50 of the reference peptide, which is a high binder to the HLA class II molecule. Unlabelled forms of the biotinylated peptides were used as reference peptides.
The HLA-DR peptide-binding assay used here was designed to give a strong coverage of commonly expressed alleles across diverse populations. For example, the DR1, 3, 4, 7, 11 and 1501 heterodimers cumulatively cover approximately 80% of individuals in Caucasian populations, whereas DR9, DR1202 and DR1502 are rare in Caucasian populations but are found in around a third of individuals in many South East Asian populations. Of the 18 peptides encompassing the SseB overlapping peptide library, 15 show significant HLA-DR binding (Table2). Eight peptides were able to bind specifically to only one or two alleles, but the seven other binders were able to bind more heterodimers. It is noteworthy that there are three peptides, p2, p11 and p18, with the property of binding 6, 7 and 8 different HLA-DR heterodimers, respectively. They span HLA-DRB sequences with rather diverse peptide-binding pockets.

[6] = target: HLA-DRB1*07:01 (Homo sapiens, UniProt P01903+P01911, A100R/A102G/A103Q/D57E/D86V/E43K/F76Y/K127E/L162R/M171V/P40G/Q125H/Q99D/R33Q/R42Y/R54Q/S133A/S66F/T210M/V115G/Y107V/Y59L/Y89S); settings: competitive ELISA; ratio IC50 of peptide / IC50 of reference peptide HA 306–318; lower = higher affinity; ratio 20 or less high, 20–100 moderate; three independent experiments
[7] = target: HLA-DRB1*11:01 (Homo sapiens, UniProt P01903+P01911, A100R/A169T/A87E/I96F/K41T/L162R/M171V/P40S/Q125H/Q178H/Q39Y/Q99D/R42S/S66Y/T262R/V115G/W38E); settings: competitive ELISA; ratio IC50 of peptide / IC50 of reference peptide HA 306–318; lower = higher affinity; ratio 20 or less high, 20–100 moderate; three independent experiments

Row | Substance | Relative binding affinity of peptide to HLA-DR molecules DRB1*0301 [1] | Relative binding affinity of peptide to HLA-DR molecules DRB1*0901 [2] | Relative binding affinity of peptide to HLA-DR molecules DRB1*1202 [3] | Relative binding affinity of peptide to HLA-DR molecules DRB1*1502 [4] | number of different HLA-DR heterodimers bound [5] | Relative binding affinity of peptide to HLA-DR molecules DRB1*0701 [6] | Relative binding affinity of peptide to HLA-DR molecules DRB1*1101 [7]
1 | 2: SseB overlapping library peptide, residues 11–30 (QNPIVFKNSFGVSNADTGSQ) [Peptide 2] | > 119 | 10 | 59 | 5 | 6 | 14 | > 278
2 | 11: SseB overlapping library peptide, residues 101–120 (EDVIKYMRDNGILIDGMTID) [Peptide 11] | > 119 | 34 | 8 | 37 | 7 | 2 | > 278
3 | AVLTQLTGLISKWGEISSMIAQKTYS [Peptide 18] | > 119 | 21 | 4 | 63 | 8 | 12 | 7
